Common to all, as to assay: cell-based or functional assay
Assay [1] deals with AMPKα1 (h) (human) (UniProt Q13131).
In assay [2] the target is Abl(T315I) (h) (human) (UniProt P00519).
Assay [3] has as its target DYRK2 (h) (human) (UniProt Q92630).
Assay [4] addresses ErbB4 (h) (human) (UniProt Q15303).
For assay [5], the target named is MLCK (h) (human).
For assay [6], the target named is Met(M1268T) (h) (human) (UniProt P08581).
The target of assay [7] is T1, NEK2 (h) (human) (UniProt P51955).
T1 sequence (looked up): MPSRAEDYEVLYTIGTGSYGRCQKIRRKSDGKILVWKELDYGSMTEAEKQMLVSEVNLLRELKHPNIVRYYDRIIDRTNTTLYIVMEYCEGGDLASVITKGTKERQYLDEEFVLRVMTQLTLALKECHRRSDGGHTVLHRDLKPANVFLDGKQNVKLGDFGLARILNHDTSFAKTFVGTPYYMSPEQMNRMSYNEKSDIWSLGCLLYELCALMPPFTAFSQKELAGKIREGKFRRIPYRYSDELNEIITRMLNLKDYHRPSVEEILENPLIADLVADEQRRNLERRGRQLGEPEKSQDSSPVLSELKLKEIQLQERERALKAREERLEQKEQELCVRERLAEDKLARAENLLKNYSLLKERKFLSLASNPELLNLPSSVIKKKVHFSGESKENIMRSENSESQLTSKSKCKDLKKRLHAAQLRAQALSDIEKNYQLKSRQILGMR

The target of assay [8] is PKCβII (h) (human) (UniProt P05771).
For assay [9], the target named is T2, PKG1β (h) (human) (UniProt Q13976).
T2 sequence (looked up): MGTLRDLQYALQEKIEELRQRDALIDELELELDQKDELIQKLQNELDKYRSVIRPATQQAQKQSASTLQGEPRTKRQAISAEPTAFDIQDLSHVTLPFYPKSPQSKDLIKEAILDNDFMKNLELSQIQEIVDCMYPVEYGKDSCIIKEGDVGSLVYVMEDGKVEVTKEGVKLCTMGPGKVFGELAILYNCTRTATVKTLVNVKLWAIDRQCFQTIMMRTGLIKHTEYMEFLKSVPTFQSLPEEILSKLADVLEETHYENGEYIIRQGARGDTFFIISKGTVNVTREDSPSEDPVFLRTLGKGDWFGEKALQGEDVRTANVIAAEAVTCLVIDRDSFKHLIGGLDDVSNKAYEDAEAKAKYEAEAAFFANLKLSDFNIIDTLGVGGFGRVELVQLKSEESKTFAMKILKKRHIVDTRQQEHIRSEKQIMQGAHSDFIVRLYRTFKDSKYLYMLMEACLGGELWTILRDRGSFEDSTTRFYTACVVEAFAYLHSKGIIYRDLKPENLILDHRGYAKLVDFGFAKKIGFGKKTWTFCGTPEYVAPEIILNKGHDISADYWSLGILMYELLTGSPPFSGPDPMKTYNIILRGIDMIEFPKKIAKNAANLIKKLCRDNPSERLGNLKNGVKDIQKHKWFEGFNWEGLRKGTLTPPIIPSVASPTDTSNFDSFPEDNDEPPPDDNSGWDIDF

Assay [10] addresses PRK2 (h) (human) (UniProt Q16513).
Assay [11] concerns the target T3, PrKX (h) (human) (UniProt P51817).
T3 sequence (looked up): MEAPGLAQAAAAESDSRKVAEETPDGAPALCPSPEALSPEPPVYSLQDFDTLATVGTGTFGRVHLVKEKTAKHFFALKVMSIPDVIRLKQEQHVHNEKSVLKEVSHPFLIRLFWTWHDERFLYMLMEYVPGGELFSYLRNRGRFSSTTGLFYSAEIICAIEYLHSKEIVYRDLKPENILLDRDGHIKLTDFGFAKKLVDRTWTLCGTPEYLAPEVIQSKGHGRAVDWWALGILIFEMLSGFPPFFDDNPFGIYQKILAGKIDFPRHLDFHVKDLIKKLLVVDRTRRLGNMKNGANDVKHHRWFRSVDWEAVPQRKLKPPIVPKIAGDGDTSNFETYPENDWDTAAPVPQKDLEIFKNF

For assay [12], the target named is RIPK2 (h) (human) (UniProt O43353).
The target in assay [13] is SGK (h) (human) (UniProt O00141).
The target in assay [14] is Src(1-530) (h) (human) (UniProt P12931).
Assay [15] deals with T4, TAO1 (h) (human) (UniProt Q7L7X3).
T4 sequence (looked up): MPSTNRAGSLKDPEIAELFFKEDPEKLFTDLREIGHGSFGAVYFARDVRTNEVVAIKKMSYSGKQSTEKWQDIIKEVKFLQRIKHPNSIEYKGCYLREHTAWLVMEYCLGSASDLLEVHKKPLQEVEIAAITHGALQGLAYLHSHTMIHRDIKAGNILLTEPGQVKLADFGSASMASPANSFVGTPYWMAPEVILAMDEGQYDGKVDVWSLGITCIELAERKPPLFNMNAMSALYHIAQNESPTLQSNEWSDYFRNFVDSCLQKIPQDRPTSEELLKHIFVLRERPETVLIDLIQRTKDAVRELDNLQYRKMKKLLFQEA

Assay [16] has as its target Tie2 (h) (human) (UniProt Q02763).

Sequence of SGK (h) (human) (O00141 60-431 limits assumed): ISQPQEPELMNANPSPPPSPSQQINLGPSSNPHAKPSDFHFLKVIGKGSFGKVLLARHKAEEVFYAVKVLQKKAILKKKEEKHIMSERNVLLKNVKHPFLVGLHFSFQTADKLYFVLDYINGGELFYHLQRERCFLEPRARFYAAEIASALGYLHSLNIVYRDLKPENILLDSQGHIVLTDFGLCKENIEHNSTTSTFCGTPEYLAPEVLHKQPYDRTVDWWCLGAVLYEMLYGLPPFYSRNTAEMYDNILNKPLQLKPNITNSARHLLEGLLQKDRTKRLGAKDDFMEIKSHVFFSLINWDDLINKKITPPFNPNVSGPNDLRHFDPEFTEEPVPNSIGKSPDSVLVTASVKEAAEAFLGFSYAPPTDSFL
Sequence of Abl(T315I) (h) (human) (P00519 27-1130 T315I limits assumed): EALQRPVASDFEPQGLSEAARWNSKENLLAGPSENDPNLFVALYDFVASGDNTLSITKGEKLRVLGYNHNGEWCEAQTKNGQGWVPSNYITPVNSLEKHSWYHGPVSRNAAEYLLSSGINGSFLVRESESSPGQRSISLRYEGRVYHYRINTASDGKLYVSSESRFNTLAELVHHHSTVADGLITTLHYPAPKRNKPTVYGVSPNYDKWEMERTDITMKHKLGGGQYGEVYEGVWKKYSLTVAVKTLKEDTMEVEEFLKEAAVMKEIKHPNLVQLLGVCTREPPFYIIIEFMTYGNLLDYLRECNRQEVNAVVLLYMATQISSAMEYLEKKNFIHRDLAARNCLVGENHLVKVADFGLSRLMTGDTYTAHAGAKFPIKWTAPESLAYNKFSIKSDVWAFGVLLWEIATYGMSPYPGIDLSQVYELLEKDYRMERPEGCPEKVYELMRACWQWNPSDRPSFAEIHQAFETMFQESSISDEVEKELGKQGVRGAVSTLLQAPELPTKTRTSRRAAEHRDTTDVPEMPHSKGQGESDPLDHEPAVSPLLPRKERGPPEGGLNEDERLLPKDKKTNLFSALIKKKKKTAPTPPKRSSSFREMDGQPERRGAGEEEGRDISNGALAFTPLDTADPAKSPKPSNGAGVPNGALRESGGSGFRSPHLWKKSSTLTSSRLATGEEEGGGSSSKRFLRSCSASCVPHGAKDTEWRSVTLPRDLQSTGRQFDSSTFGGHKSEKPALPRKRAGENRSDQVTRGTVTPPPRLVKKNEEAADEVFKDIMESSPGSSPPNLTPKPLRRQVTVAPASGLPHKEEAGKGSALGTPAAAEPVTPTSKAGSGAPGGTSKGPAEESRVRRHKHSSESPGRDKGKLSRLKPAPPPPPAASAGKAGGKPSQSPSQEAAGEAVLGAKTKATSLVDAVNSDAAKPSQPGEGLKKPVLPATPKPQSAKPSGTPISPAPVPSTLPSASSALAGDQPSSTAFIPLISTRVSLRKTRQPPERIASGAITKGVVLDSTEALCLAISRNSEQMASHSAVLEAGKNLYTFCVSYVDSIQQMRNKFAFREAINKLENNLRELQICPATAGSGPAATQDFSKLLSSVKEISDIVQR
Sequence of ErbB4 (h) (human) (Q15303 706-991 limits assumed): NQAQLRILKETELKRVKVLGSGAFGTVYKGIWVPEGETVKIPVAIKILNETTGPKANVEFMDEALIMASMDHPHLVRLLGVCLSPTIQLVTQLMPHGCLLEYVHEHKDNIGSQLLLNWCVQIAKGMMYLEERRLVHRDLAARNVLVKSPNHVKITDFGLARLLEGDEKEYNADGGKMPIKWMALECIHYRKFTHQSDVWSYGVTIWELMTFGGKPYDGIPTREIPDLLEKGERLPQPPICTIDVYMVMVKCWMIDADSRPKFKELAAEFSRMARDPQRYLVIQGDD
Sequence of Tie2 (h) (human) (Q02763 771-1124 limits assumed): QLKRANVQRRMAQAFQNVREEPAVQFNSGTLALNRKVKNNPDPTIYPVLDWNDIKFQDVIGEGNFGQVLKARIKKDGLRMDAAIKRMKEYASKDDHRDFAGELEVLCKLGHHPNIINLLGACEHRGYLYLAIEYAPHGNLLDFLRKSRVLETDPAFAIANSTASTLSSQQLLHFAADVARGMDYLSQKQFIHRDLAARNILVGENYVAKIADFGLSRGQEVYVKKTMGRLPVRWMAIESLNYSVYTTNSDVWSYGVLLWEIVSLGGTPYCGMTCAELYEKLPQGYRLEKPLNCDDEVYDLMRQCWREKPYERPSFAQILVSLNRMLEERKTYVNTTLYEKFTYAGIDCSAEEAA
Sequence of RIPK2 (h) (human) (O43353 1-299 limits assumed): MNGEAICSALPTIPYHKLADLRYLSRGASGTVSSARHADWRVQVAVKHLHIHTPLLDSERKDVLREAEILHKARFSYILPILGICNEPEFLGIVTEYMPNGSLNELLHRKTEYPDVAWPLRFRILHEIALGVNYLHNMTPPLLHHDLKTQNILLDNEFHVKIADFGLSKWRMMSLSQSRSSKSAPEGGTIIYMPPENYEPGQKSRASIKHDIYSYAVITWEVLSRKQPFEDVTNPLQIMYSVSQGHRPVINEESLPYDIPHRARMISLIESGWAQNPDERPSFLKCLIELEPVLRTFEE

For the substance MMI-0300 (peptide), the % activity at 100 µM in assay [1] turned out to be 71%; in [2] it was 97%; in [3], 155%; in [4], 40%; in assay [5], 2%; in assay [6], 255%. Also, the % activity at 100 µM in [7] was determined as 78%; in assay [8], 82%; in [9] it was 50%; in [10] it was 33%; in assay [11] it was 61%; in assay [12], 97%. For the same substance, the % activity at 100 µM is 48% in [13], 23% in assay [14], 82% in assay [15] and 26% in assay [16].

Values taken from patent US20160136234A1.
